Experimental data as given in EP4810515A1 (Shanghai Haiju Biological Technology Co., Ltd., dated 2026).

T1: human GDF15 recombinant protein (ACRO, GD5-H5149) (human, UniProt Q99988 197-308)
T1 sequence (looked up): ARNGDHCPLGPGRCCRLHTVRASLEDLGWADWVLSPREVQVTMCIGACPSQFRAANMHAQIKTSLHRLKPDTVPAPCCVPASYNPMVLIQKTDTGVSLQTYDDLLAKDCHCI

T2: mouse GDF15 recombinant protein (Kactus, GDF-MM215) (mouse, UniProt Q9Z0J7 189-303, limits assumed)
T2 construct: also called mGDF-15.hFc; murine GDF15; not shown: human Fc (hFc)
T2 sequence (looked up): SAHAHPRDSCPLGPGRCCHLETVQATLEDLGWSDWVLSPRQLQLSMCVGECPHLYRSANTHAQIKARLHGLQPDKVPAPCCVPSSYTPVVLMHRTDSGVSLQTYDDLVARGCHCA

T3: cynomolgus monkey GDF15 recombinant protein (Kactus, GDF-CM215) (cynomolgus monkey, UniProt G7PWZ3 197-308, limits assumed)
T3 construct: also called cynoGDF-15.hFc; cynoGDF15; not shown: human Fc (hFc)
T3 sequence (looked up): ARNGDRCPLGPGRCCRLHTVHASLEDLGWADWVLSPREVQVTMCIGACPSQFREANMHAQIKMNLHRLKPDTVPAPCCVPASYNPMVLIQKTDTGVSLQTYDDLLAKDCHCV

B1: G2-CH2-LP2-hIgG1 (LALAGA, -K) (antibody, V domains shown)
VH: QVTLKESGPGILQPSQTLSLTCSFSGFSLTISGMGVSWIRQPSGKGLEWLAHIYWDDDKRYNPSLKSRLTISKDTSSNQVFLEITSVDTADTATYYCVRAGWDFFDYWGQGTTLTVSS
VL: DIVMTQSQKFMSTSVGDRVSVTCKASQNVGTNVAWYQQKPGQSPKGLIYSASYRYSGVPDRFTGSGSGTDFTLTISNVQSEDLAEYFCQQYESYPWTFGGGTKLEIKR
B2: G2-CH17 (antibody, human IgG1, kappa, V domains shown)
VH: QVTLKESGPGILQPSQTLSLTCSFSGFSLNTSGMGVSWIRQPSGKGLEWLAHIYWDDDKRYNPSLKSRLTISKDTSRNQVFLKITGVDTADTAAYYCARTGWDFFDIWGQGTTLTVSS
VL: DIVMTQSQKFMSTSVGDRVSVTCKASQNVGSNVAWYQQKPGQSPKALIYSASYRYSGVPDRFTGSGSGTDFTLTITNVQSEDLAEYFCQQYKSYPLTFGAGTKLELKR
notes: chimeric: murine variable regions on human IgG1 constant region mutant (LALAGA, -K)
B3: G2-CH2-LP3-hIgG1 (LALAGA, -K) (antibody, V domains shown)
VH: QVTLKESGPGILQPSQTLSLTCSFSGFSLTISGMGVSWIRQPSGKGLEWLAHIYWDDDKRYNPSLKSRLTISKDTSSNQVFLEITSVDTADTATYYCVRAGWDFFDYWGQGTTLTVSS
VL: DIVMTQSQKFMSTSVGDRVSVTCKASQNVGTNVAWYQQKPGQSPKGLIYSASYRYSGVPDRFTGSGSGTDFTLTISNVQSEDLAEYFCQQYNQYPWTFGGGTKLEIKR
B4: G2-CH8-LP1-hIgG1 (LALAGA, -K) (antibody, V domains shown)
VH: QVTLKESGPGILQPSQTLSLTCSFSGFSLSTYGIGVGWIRQPSGKGLEWLAHIWWNDNKYYNTALKSRLTISKDTSNNQVFLKIASVDTADTATYYCARLAYDYVDSWGQGTTLTVSS
VL: DIVMTQAAFSNPVTLGTSASISCRSSKSLLHSNAITYLYWYLQKPGQSPQLLIYQMSNLVSGVPDRFSSSGSGTDFTLRISRVEAEDVGVYYCAQNLELPPTFGAGTKLELKR
B5: G2-CH8-LP2-hIgG1 (LALAGA, -K) (antibody, V domains shown)
VH: QVTLKESGPGILQPSQTLSLTCSFSGFSLSTYGIGVGWIRQPSGKGLEWLAHIWWNDNKYYNTALKSRLTISKDTSNNQVFLKIASVDTADTATYYCARLAYDYVDSWGQGTTLTVSS
VL: DIVMTQAAFSNPVTLGTSASISCRSSKSLLHSNQITYLYWYLQKPGQSPQLLIYQMSNLVSGVPDRFSSSGSGTDFTLRISRVEAEDVGVYYCAQNLELPPTFGAGTKLELKR
B6: G2-CH8-LP3-hIgG1 (LALAGA, -K) (antibody, V domains shown)
VH: QVTLKESGPGILQPSQTLSLTCSFSGFSLSTYGIGVGWIRQPSGKGLEWLAHIWWNDNKYYNTALKSRLTISKDTSNNQVFLKIASVDTADTATYYCARLAYDYVDSWGQGTTLTVSS
VL: DIVMTQAAFSNPVTLGTSASISCRSSKSLLHSEGITYLYWYLQKPGQSPQLLIYQMSNLVSGVPDRFSSSGSGTDFTLRISRVEAEDVGVYYCAQNLELPPTFGAGTKLELKR
B7: G2-CH5-HP1-hIgG1 (LALAGA, -K) (antibody, V domains shown)
VH: EVLLQQSGPELVKPGASVKIACKASGYTLTDYNLNWVKQSHGKSLEWIGDLNPYNAGIIYNQKFKGKATLTVDKSSSTAYMELRSLTSEDIAVYYCAREGRGGAWFDSWGQGTLVTVSA
VL: DIQMTQSSSSFSVSLGDRVTITCKASEDIYHRLAWYQQKPGNAPRLLISGATSLETGIPSRFSGSGSGKDYALSITSLQTEDVGTYYCQQYWSPPFTFGSGTKLEIKR
B8: G2-CH5-HP2-hIgG1 (LALAGA, -K) (antibody, V domains shown)
VH: EVLLQQSGPELVKPGASVKIACKASGYTLTDYNLNWVKQSHGKSLEWIGDLNPYNQGIIYNQKFKGKATLTVDKSSSTAYMELRSLTSEDIAVYYCAREGRGGAWFDSWGQGTLVTVSA
VL: DIQMTQSSSSFSVSLGDRVTITCKASEDIYHRLAWYQQKPGNAPRLLISGATSLETGIPSRFSGSGSGKDYALSITSLQTEDVGTYYCQQYWSPPFTFGSGTKLEIKR

Columns and labels:
[1] = molecular target: T1, human GDF15 recombinant protein (ACRO, …); test: cell-based or functional assay
[2] = molecular target: T2, mouse GDF15 recombinant protein …; test: ELISA, coated mGDF-15.hFc 2 ug/mL
[3] = molecular target: T1, human GDF15 recombinant protein (ACRO, …); test: ELISA, coated hGDF-15.His
[4] = molecular target: T3, cynomolgus monkey GDF15 recombinant …; test: ELISA, coated cynoGDF-15.hFc

Binder	IC50, reporter gene cell strain (mGFRAL) [1] [µg/mL]	further results
B1	0.091	
B2		binding result [2]: no binding; EC50 [3]: 3.93 pM; EC50 [4]: 130 pM
B3	0.093	
B4	0.116	
B5	0.1	
B6	0.081	
B7	0.18	
B8	0.142	
